Experimental data published in PMC314469 (2004).
Like-named read-outs stand apart in the source and are kept apart here. No end group written: not given here.

T1: GST-Abp1 SH3 domain (S. cerevisiae, UniProt P15891 532-592)
T1 chain: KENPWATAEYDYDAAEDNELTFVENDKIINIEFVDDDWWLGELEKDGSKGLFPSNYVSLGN

B1: RVS167 SH3 domain (protein)
chain: PGVETVTALYDYQAQAAGDLSFPAGAVIEIVQRTPDVNEWWTGRYNGQQGVFPGNYVQLNKN
B2: BOI2 SH3 domain (protein)
chain: GNFPMYIAINEYFKRMEDELDMKPGDKIKVITDDEEYKDGWYFGRNLRTNEEGLYPVVFTQKITV
B3: YFR024C SH3 domain (protein)
chain: TSSPKAVALYSFAGEESGDLPFRKGDVITILKKSDSQNDWWTGRVNGREGIFPANYVELV

Legend:
Experiment in all cases: SPR
YPR171 peptide = target: YPR171 peptide
GST-Abp1 SH3 domain [1] = target: T1, GST-Abp1 SH3 domain
RVS167 SH3 domain = target: B1
GST-Abp1 SH3 domain [2] = target: T1, GST-Abp1 SH3 domain
YJR083C peptide = target: YJR083C peptide
YMR192 peptide = target: YMR192 peptide

Row | Binder | Kd (YPR171 peptide) [µM] | Kd (GST-Abp1 SH3 domain [1]) [µM] | Kd (RVS167 SH3 domain) [µM] | Kd (GST-Abp1 SH3 domain [2]) [µM] | Kd (YJR083C peptide) [µM] | Kd (YMR192 peptide) [µM]
1 | B1 | 16 |  |  |  |  | 
2 | GKDKSRPPRPPPKP (also: bound to cellulose membrane (SPOT)) [Prk1 peptide(s) on the Abp1 SPOT membrane] |  | 22 | > 100 | 22 |  | 
3 | SKDKKTKPTPPPKP (also: bound to cellulose membrane (SPOT)) [Ark1 peptide(s) on the Abp1 SPOT membrane] |  | 24 | > 100 | 24 |  | 
4 | LSTKKPRPPVKSKP (also: bound to cellulose membrane) [Scp1 peptide(s) on the Abp1 SPOT membrane] |  | 14 |  | 14 |  | 
5 | B2 | > 100 |  |  |  | > 100 | > 100
6 | RPKRRAPPPVPKKP (also: bound to cellulose SPOT membrane) [Yir003w peptide(s) on the Abp1 SPOT membrane] |  | 0.92 | 13 | 0.9 |  | 
7 | B3 | 4.8 |  |  |  |  | 
8 | PPPRPKKP (also: bound to cellulose membrane) [Srv2 peptide(s) on the Abp1 SPOT membrane] |  | 75 |  | 75 |  | 
